Results from patent US20240287168A1 (SHANGHAI JEMINCARE PHARMACEUTICAL, published 2024).

Legend:
[1] = target: irrelevant antigen; test: flow cytometry, yeast-displayed VHH, 10 nM irrelevant antigen, streptavidin-PE (Protocol 3, non-specific binding level)
[2] = target: T1, Biotinylated Human VEGF165 (ACROBiosystems, Cat. No. VE5-H82Q0) (human, UniProt P15692-4 27-191, biotinylated (site not stated)); test: BLI (Octet RED96e), antibody captured on AHC sensor, 100 nM VEGF165
T1 construct: Bought reagent; also called Human VEGF-Bio; human VEGF165-Bio
T1 sequence (P15692 other isoform, or with tags, fused parts or gaps limits assumed): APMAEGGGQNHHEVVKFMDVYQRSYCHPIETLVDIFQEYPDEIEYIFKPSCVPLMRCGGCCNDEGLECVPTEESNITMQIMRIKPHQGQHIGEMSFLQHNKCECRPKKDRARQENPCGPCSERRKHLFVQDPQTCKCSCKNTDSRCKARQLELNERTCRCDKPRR
Protocol: (§1) The antigen and antibody were both diluted with 1×PBST (1×PBS: Sango Biotech, B548117-0500; 0.02% Tween 20: sigma-alorich, P1379), the antigen was used at a concentration of 100 nM, and the antibody was used at a concentration of 50 nM.
(§2) (2) On-board detection of samples (Octet Data Acquisition 11.1.0.11): First, the samples were added to a 96-well plate (Greiner bio-one, 655209), and the system was 200 μL/well. Then the software parameters were set, the plate temperature was set to be 30° C., and the frequency of collecting the standard kinetic signal was 5.0 Hz. Next, the AHC sensor (Fortébio, Cat. No.: 18-0015) was pre-wetted with 1×PBST for 10 minutes, and then detected on the machine. Each cycle consists of the following steps: 1) immersion in the buffer for 60 seconds; 2) detection of whether there is a non-specific binding between antigen and sensor; 3) regeneration of 10 mM glycine solution with pH 1.7; 4) immersion in the buffer for 60 seconds; 5) immobilization of the antibody on the sensor for a time of 20 seconds; 6) immersion of the sensor in the buffer for 180 seconds; 7) binding of the antigen to the antibody for a time of 180 seconds; 8) dissociation of the antigen and the antibody for 10 minutes; 9) sensor regeneration.

[3] = target: T1, Biotinylated Human VEGF165 …; test: BLI (Octet RED96e), antibody captured on AHC sensor, 100 nM VEGF165, 1:1 fit
Protocol: as §1, §2
Fortebio's Data Analysis 11.0 software was used to measure the binding rate (Ka) and dissociation rate (Kd) of the antigen-antibody in a 1:1 binding mode, and then the equilibrium dissociation constant (KD) of the antibody was calculated.

[4] = target: T1, Biotinylated Human VEGF165 …; test: competitive ELISA: antibody titrated with biotinylated human VEGF165 on coated human VEGFR2, SA-HRP, OD450; blocked interaction VEGF165-VEGFR2
Protocol: (§3) A competitive ELISA method was used to determine the activity of the single domain antibody in blocking the binding of VEGF165 to human VEGFR2. […] The next day, the plate was washed 3 times with washing solution PBST (0.05% TWEEN-20: sigma-alorich, P1379), and then the blocking solution PBST+2% BSA (BSA: VWR, 0332-1 KG) was prepared using the washing solution, with 300 μL of blocking solution added to each well, blocked at 37° C. for 1 hour. […] The plate was washed three times with the washing solution, the secondary antibody SA-HRP (sigma, S2438) was diluted 1:5000 with the blocking solution, added to the ELISA plate according to 100 μL/well, and incubated at 37° C. for 1 hour. The plate was washed 3 times with the washing solution, 100 μL of TMB chromogenic solution (Biopanda, Cat. No.: TMB-S-003) were added to each well, and developed color at room temperature in the dark, and then 50 μL of stop solution (Solarbio, Cat. No.: C1058) were added to each well to stop the reaction, and the absorbance was measured at a wavelength of 450 nm.

[5] = target: T1, Biotinylated Human VEGF165 …; test: flow cytometry, yeast-displayed clone, 1 nM Human VEGF165-Biotin
[6] = target: T1, Biotinylated Human VEGF165 …; test: flow cytometry, yeast-displayed clone, 1 nM Human VEGF165-Biotin; ratio of binding MFI and displaying MFI
[7] = target: T1, Biotinylated Human VEGF165 …; test: BLI (Octet RED96e), method of Example 4, antibody on AHC sensor
Protocol: as §1, §2

[8] = target: T1, Biotinylated Human VEGF165 …; test: BLI (Octet RED96e), method of Example 4, antibody on AHC sensor, 1:1 fit
Protocol: as §1, §2

[9] = target: T1, Biotinylated Human VEGF165 …; test: competitive ELISA: antibody titrated with biotinylated human VEGF165 (formulated at 700 ng/ml) on coated human VEGFR2, SA-HRP, OD450; blocked interaction VEGF165-VEGFR2
Protocol: as §3

B1: Y20A6, anti-human VEGF165 single domain heavy chain antibody clone displayed on yeast (VHH, not shown: large carriers; small tags and cut ends)
VHH: AVQLVESGGGLVQAGGSARLSCAASGSTSDIVSMAWYRQAPGKERDLVAAVFAEDWRYVEDSVRGRFTISRDNTKNTVDLQMNNLKPEDTAIYYCNVRLRITDERRRERLDYWGQGTQVTVSS
B1 was tested, and the Irrelevant antigen binding signal (PE MFI) [1] was 21.8 MFI.

B2: Ab1910VE6 (Y20A6 VHH fused with IgG1 Fc N297A; original antibody before humanization) (Fc fusion)
VHH: AVQLVESGGGLVQAGGSARLSCAASGSTSDIVSMAWYRQAPGKERDLVAAVFAEDWRYVEDSVRGRFTISRDNTKNTVDLQMNNLKPEDTAIYYCNVRLRITDERRRERLDYWGQGTQVTVSS
notes: Expressed in ExpiCHO cells; not shown: IgG1 Fc N297A (purchased from Taizhou Biointron Inc.)
B2 was tested, and the Response value [2] was 0.442, the Kd [3] was 6.3 nM and the koff [3] was 0.00888 s⁻¹. The kon [3] was 1.41e+06 M⁻¹ s⁻¹ and the IC50 [4] was 0.516 µg/mL.

B3: Ab1910VE9 parental sequence displayed on the surface of yeast (VHH)
VHH: EVQLVESGGGLVQPGGSLRLSCAASGSTSDIVSMAWYRQAPGKERELVSAVFAEDWRYVEDSVKGRFTISRDNSKNTVYLQMNSLRAEDTAVYYCNVRLRITDERRRERLDYWGQGTLVTVSS
notes: also called clone number Ab1910VE9
For B3, the “Binding MFI” value [5] was 42.1 MFI and the Binding force [6] was 11.7.

B4: Ab1910VE8 (Hz20A6.2 humanized VHH fused with IgG1 Fc N297A) (Fc fusion)
VHH: EVQLVESGGGLVQPGGSLRLSCAASGSTSDIVSMAWYRQAPGKERELVSAVFAEDWRYVEDSVKGRFTISRDNSKNTVYLQMNSLRAEDTAVYYCNVRLRITDERRRERLDYWGKGTTVTVSS
notes: as for B2
Binder B4 has a Kd [3] of 10.5 nM, a koff [3] of 0.0184 s⁻¹ and a kon [3] of 1.75e+06 M⁻¹ s⁻¹. It also gave an IC50 [4] of 4.18 µg/mL.

B5: Ab1910VE21 (expressed affinity-matured single domain antibody, clone YC41D1) (VHH)
VHH: EVQLVESGGGLVQPGGSLRLSCAASGSTSDIVSMAWYRQAPGKERELVSAVLAPGWSYVEDSVKGRFTISRDNSKNTVYLQMNSLRAEDTAVYYCNVRLRITDERRRERLDYWGQGTLVTVSS
Binder B5 has a Response value [7] of 0.154, a Kd [8] of 0.413 nM and a koff [8] of 0.00051 s⁻¹. It also gave a kon [8] of 1.24e+06 M⁻¹ s⁻¹ and an IC50 [9] of 0.42 µg/mL.

B6: Ab1910VE23 (expressed affinity-matured single domain antibody, clone YC43H2) (VHH)
VHH: EVQLVESGGGLVQPGGSLRLSCAASGSTSDIVSMAWYRQAPGKERELVSAVFAEDWRYVEDSVKGRFTISRDNSKNTVYLQMNSLRAEDTAVYYCNVRLRIPHQWRTERLDYWGQGTLVTVSS
Work on B6 yielded a Response value [7] of 0.116, a Kd [8] of 0.728 nM and a koff [8] of 0.00104 s⁻¹. The kon [8] was 1.43e+06 M⁻¹ s⁻¹ and the IC50 [9] was 1.24 µg/mL.

B7: Ab1910VE24 (expressed affinity-matured single domain antibody, clone YC43B1) (VHH)
VHH: EVQLVESGGGLVQPGGSLRLSCAASGSTSDIVSMAWYRQAPGKERELVSAVFAEDWRYVEDSVKGRFTISRDNSKNTVYLQMNSLRAEDTAVYYCNVRLRITDWYSRERLDYWGQGTLVTVSS
With B7 the Response value [7] was 0.153, the Kd [8] was 0.626 nM and the koff [8] was 0.000857 s⁻¹. It also gave a kon [8] of 1.37e+06 M⁻¹ s⁻¹ and an IC50 [9] of 0.623 µg/mL.

B8: YC41D1, affinity-matured mutant clone of Ab1910VE9 displayed on yeast (VHH)
VHH: EVQLVESGGGLVQPGGSLRLSCAASGSTSDIVSMAWYRQAPGKERELVSAVLAPGWSYVEDSVKGRFTISRDNSKNTVYLQMNSLRAEDTAVYYCNVRLRITDERRRERLDYWGQGTLVTVSS
notes: also called antibody number Ab1910VE21
B8 was tested, and the “Binding MFI” value [5] was 337 MFI and the Binding force [6] was 98.2.

B9: YC43B1, affinity-matured mutant clone of Ab1910VE9 displayed on yeast (VHH)
VHH: EVQLVESGGGLVQPGGSLRLSCAASGSTSDIVSMAWYRQAPGKERELVSAVFAEDWRYVEDSVKGRFTISRDNSKNTVYLQMNSLRAEDTAVYYCNVRLRITDWYSRERLDYWGQGTLVTVSS
notes: also called antibody number Ab1910VE24
B9 was tested, and the “Binding MFI” value [5] was 503 MFI and the Binding force [6] was 114.

B10: YC43H2, affinity-matured mutant clone of Ab1910VE9 displayed on yeast (VHH)
VHH: EVQLVESGGGLVQPGGSLRLSCAASGSTSDIVSMAWYRQAPGKERELVSAVFAEDWRYVEDSVKGRFTISRDNSKNTVYLQMNSLRAEDTAVYYCNVRLRIPHQWRTERLDYWGQGTLVTVSS
notes: also called antibody number Ab1910VE23
For B10, the “Binding MFI” value [5] was 358 MFI and the Binding force [6] was 129.

B11: Ab1910VE9 (Hz20A6.3 humanized VHH fused with IgG1 Fc N297A) (Fc fusion)
VHH: EVQLVESGGGLVQPGGSLRLSCAASGSTSDIVSMAWYRQAPGKERELVSAVFAEDWRYVEDSVKGRFTISRDNSKNTVYLQMNSLRAEDTAVYYCNVRLRITDERRRERLDYWGQGTLVTVSS
notes: as for B2
B11 gave a Kd [3] of 9.91 nM, a koff [3] of 0.0181 s⁻¹ and a kon [3] of 1.82e+06 M⁻¹ s⁻¹. It also gave an IC50 [4] of 4.67 µg/mL.

B12: Ab1910VE18 (expressed single domain antibody with the Ab1910VE9 parent sequence, molecule before affinity maturation) (VHH)
VHH: EVQLVESGGGLVQPGGSLRLSCAASGSTSDIVSMAWYRQAPGKERELVSAVFAEDWRYVEDSVKGRFTISRDNSKNTVYLQMNSLRAEDTAVYYCNVRLRITDERRRERLDYWGQGTLVTVSS
notes: Its theoretical pI (7.5) differs from that of Ab1910VE9 (7), so it is kept apart from Ab1910VE9
In the case of B12, the Response value [7] is reported as 0.142, the Kd [8] is reported as 2.23 nM and the koff [8] is reported as 0.00403 s⁻¹. It also gave a kon [8] of 1.81e+06 M⁻¹ s⁻¹ and an IC50 [9] of 0.88 µg/mL.
